Reference: patent publication US20190046600

Legend:
Ac-DEVD-CHO = target: T1, Ac-DEVD-CHO
T1 chain: DEVD

[1] = target: T2, HILR-030 (cyclo-[Pro-Arg-Gly-Pro-Arg-Pro-Val-Trp-Trp-Gpa-Gpa-Trp-Trp-Gpa-Gpa-Trp-Trp])
T2 chain: PRGPRPVWWXXWWXXWW

B1: recombinant human caspase 3 enzyme (protein)
chain: SGISLDNSYKMDYPEMGLCIIINNKNFHKSTGMTSRSGTDVDAANLRETFRNLKYEVRNKNDLTREEIVELMRDVSKEDHSKRSSFVCVLLSHGEEGIIFGTNGPVDLKKITNFFRGDRCRSLTGKPKLFIIQACRGTELDCGIETDSGVDDDMACHKIPVEADFLYAYSTAPGYYSWRNSKDGSWFIQSLCAMLKQYADKLEFMHILTRVNRKVATEFESFSFDATFHAKKQIPCIVSMLTKELYFYH
caspase-3 activity (Apo-ONE Homogeneous Caspase-3/7 assay, 2 h co-incubation with substrate or enzyme) (Ac-DEVD-CHO): Both DEVD-CHO and HILR-030 inhibited the caspase-3 activity in a dose-dependent fashion | caspase-3 activity (Apo-ONE Homogeneous Caspase-3/7 assay, cleavage of Z-DEVD-R110, recombinant enzyme) (Ac-DEVD-CHO): Ac-DEVD-CHO inhibited the activity of caspase-3 in a dose-dependent manner, giving rise to IC50s within the expected range according to the inhibitor specification sheet | caspase-3 activity (Apo-ONE Homogeneous Caspase-3/7 assay, 2 h co-incubation with substrate or enzyme) [1]: Both DEVD-CHO and HILR-030 inhibited the caspase-3 activity in a dose-dependent fashion
